Data set [1] concerns the target T1, hTRF2-DBD qm (K447R/A471S/A484S/R496K) (Homo sapiens, UniProt Q15554 SEQ:1-63).
T1 chain: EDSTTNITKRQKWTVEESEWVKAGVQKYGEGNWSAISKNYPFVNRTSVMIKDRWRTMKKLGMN
The data set can be described thus: SPR; pH 6.8, 180 mM KCl, 293 K. The following applies: tags: N-terminal Met added; untagged, E. coli BL21(DE3) pET23b; label: biotin (13mer on SA chip). The procedure: (§1) The same experiments were performed on the six mutants of hTRF2 under the same conditions. […] Further, the six mutants were analyzed by SPR for the three DNAs T3G, G7C and T9G, as well as tr13. As a result, Kd values for T3G are about 7 times higher than those values for tr13; and Kd values for T9G are about 100 times higher than those values for tr13. […] Since C7′ is changed to G7′ in G7C, Asp489 which recognizes C7′ has become incapable of recognizing DNA. Thus, interaction with DNA is assumed to be non-specific. Although the affinity to T9G is about 10 times lower than the affinity to G7C, differences in Kd values of individual mutants for DNA show relatively similar tendencies to those observed in tr13 and T3G. It is believed that the binding mode between the major groove and recognition helix is not changed and that only the affinity to T9G is merely very low.
(§2) Affinity analysis was performed using a Biacore 3000 instrument. All experiments were performed at 293 K using a buffer containing 10 mM HEPES-KOH, 3 mM EDTA, 180 mM KCl and 0.003% Triton X-100 (v/v) (pH 6.8). Flow cells of an SA streptavidin sensor chip were coated with the 13mer oligonucleotide biotinylated. The proteins were injected into flow cells over 3-5 min at a flow rate of 10 μL/min until the reaction of protein with DNA had been equilibrated. Bound proteins were removed by a 30-sec wash with 2M KCl.
On the technique in general: In SPR one partner is held on a chip, and binding of the other changes the refractive index at the surface.

In data set [2] the target is T2, hTRF2-DBD wild type (Homo sapiens, UniProt Q15554 SEQ:1-63). The experiment in a line: SPR; pH 6.8, 180 mM KCl, 293 K. The following applies: tags: N-terminal Met added; untagged, E. coli BL21(DE3) pET23b; label: biotin (13mer on SA chip). The procedure:
as §1, §2

In data set [3] the target is T3, hTRF2-DBD R496K (Homo sapiens, UniProt Q15554 SEQ:1-63).
T3 chain: T1 chain with R10K, S34A, S47A
The experiment in a line: SPR; pH 6.8, 180 mM KCl, 293 K. To be noted: tags: N-terminal Met added; untagged, E. coli BL21(DE3) pET23b; label: biotin (13mer on SA chip). The procedure: as §1, §2

Data set [4] deals with T4, hTRF2-DBD K447R (Homo sapiens, UniProt Q15554 SEQ:1-63).
T4 chain: T1 chain with S34A, S47A, K59R
The data set can be described thus: SPR; pH 6.8, 180 mM KCl, 293 K. The following applies: tags: N-terminal Met added; untagged, E. coli BL21(DE3) pET23b; label: biotin (13mer on SA chip). The procedure: as §1, §2

Data set [5] concerns the target T5, hTRF2-DBD A484S (Homo sapiens, UniProt Q15554 SEQ:1-63).
T5 chain: T1 chain with R10K, S34A, K59R
The experiment in a line: SPR; pH 6.8, 180 mM KCl, 293 K. To be noted: tags: N-terminal Met added; untagged, E. coli BL21(DE3) pET23b; label: biotin (13mer on SA chip). The procedure:
as §1, §2

Data set [6] addresses T6, hTRF1 (DNA-binding domain) (Homo sapiens, UniProt P54274 P54274:371-439). The data set can be described thus: SPR; pH 6.8, 180 mM KCl, 293 K. The following applies: label: biotin (13mer on SA chip). The procedure: as §1, §2
Data set [7] addresses T7, hTRF2-DBD A471S (Homo sapiens, UniProt Q15554 SEQ:1-63).
T7 chain: T1 chain with R10K, S47A, K59R
The data set can be described thus: SPR; pH 6.8, 180 mM KCl, 293 K. The following applies: tags: N-terminal Met added; untagged, E. coli BL21(DE3) pET23b; label: biotin (13mer on SA chip). The procedure:
as §1, §2

The target of data set [8] is T8, hTRF2-DBD dm (A471S/A484S) (Homo sapiens, UniProt Q15554 SEQ:1-63).
T8 chain: T1 chain with R10K, K59R
The data set can be described thus: SPR; pH 6.8, 180 mM KCl, 293 K. To be noted: tags: N-terminal Met added; untagged, E. coli BL21(DE3) pET23b; label: biotin (13mer on SA chip). The procedure:
as §1, §2

Data set [9] has as its target T2, hTRF2-DBD wild type. The experiment in a line: SPR; pH 6.8, 180 mM KCl, 293 K; 1:1 complex also shown by NMR titration and structure. To be noted: tags: N-terminal Met added; untagged, E. coli BL21(DE3) pET23b; label: biotin (13mer on SA chip). The procedure:
as §1, §2

Data set [10] concerns the target T6, hTRF1 (DNA-binding domain). The data set can be described thus: SPR; 10 mM HEPES-KOH pH 6.8, 3 mM EDTA, 180 mM KCl, 0.003% Triton X-100, 293 K. To be noted: label: biotin (13mer on SA chip). The procedure:
The same experiments were performed on hTRF1 under the same conditions.
as §2, with “KCl. An equilibrium dissociate constant (Kd) was calculated from a Scatchard analysis of the RU values in the equilibrium region of the sensorgram at each analyte concentration. The affinity data were analyzed using BIAevaluation ver. 3.2 software.” for “KCl.”

Positions count from the first letter of the chain named. Names may count otherwise.

This note sets out measurements from US20090176205, “Mutant proteins in the dna-binding domain of a telomeric protein, trf2, and telomeric dna mutants, and use of the complex structure of the trf2 dna-binding domain and telomeric dna” (published 2009).

T6 sequence (P54274 371-439, one chain of several): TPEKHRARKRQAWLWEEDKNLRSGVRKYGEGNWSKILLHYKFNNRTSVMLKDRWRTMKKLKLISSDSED

B1: T9G (dsDNA)
DNA 1: GTTAGGGTGAGGG
DNA 2: CCCTCACCCTAAC
The term Kd denotes the constant that tells how readily two partners part at equilibrium. Low values mean a tighter complex, high ones a looser complex. Consider B1, for which the Kd was 26.5 µM in data set [1]; 110 µM in data set [2]; 114 µM in data set [3]; 37 µM in [4]; 69.1 µM in data set [5]; 3.14 µM in data set [6]. The Kd in data set [7] was 44.2 µM; in data set [8] it was 47.9 µM.

B2: G7C (dsDNA)
DNA 1: GTTAGGCTTAGGG
DNA 2: CCCTAAGCCTAAC
Consider B2, for which the Kd in data set [3] amounted to 87 µM; in [4], 24.5 µM; in data set [5], 50.7 µM; in [6], 12.2 µM; in data set [7], 32.3 µM; in data set [8] it was 33.8 µM.

B3: tr13 (dsDNA)
DNA 1: GTTAGGGTTAGGG
DNA 2: CCCTAACCCTAAC
In the case of B3, the Kd in [1] turned out to be 0.196 µM; in [3], 0.764 µM; in data set [4], 0.297 µM; in data set [5], 0.55 µM; in [7], 0.482 µM; in [8] it was 0.385 µM. Further, the values for the Kd in data set [9] and in data set [10] were 0.748 µM and 0.186 µM, respectively.

B4: T3G (dsDNA)
DNA 1: GTGAGGGTTAGGG
DNA 2: CCCTAACCCTCAC
As for B4, the Kd in data set [2] was 5.94 µM; in data set [3] it was 4.92 µM; in [4] it was 2.19 µM; in data set [5], 4.03 µM; in data set [6] it was 0.795 µM; in data set [7], 3.07 µM. The dissociation constant Kd in [8] turned out to be 2.58 µM.
